21 molecules from patent publication US20260258115A1 (MAPP BIOPHARMACEUTICAL, published 2026) can be followed below.

In the assay the target is RSV F on RSV-A2 virus (Respiratory syncytial virus (RSV-A2)). As to the kind of experiment: cell-based or functional assay.

B1: ADI-41266 (antibody, V domains shown)
VH: QVQLQQSGPGLVKPSQTLSLTCAISGDSVSSNSAAWNWIRQSPSRGLEWLGRTYYRSKWYNDYAVSVKSRITINPDTSKNQFSLQLNSVTPEDTAVYYCARDLPQVDYFDGASFYFFDFWGQGTLVTVSS
VL: QPVLTQPPSVSVAPGQTASITCGGNIIGNKGVHWYQQKPGRAPVLVVYDDSDRPSGIPERFSGSNSGNTATLTISRVEAADEADYYCQVWDTGSHPVVFGGGTKVTVL
On to B1, for which the “Neutralization IC50 (RSV subtype A)” value is above 25 µg/mL.

B2: ADI-41258 (antibody, V domains shown)
VH: QVQLVQSGGGLVQRGGSLRLSCAASGFSFRSYAMSWVRQAPGKGLEWVSSISDSGDNTFYADSVKGRFSISRDNSRDTLYLQMNSLRAEDTAVYYCARGGYCSGGNCFPFDYWGQGTLVTVSS
VL: SYELMQLPSVSVSPGQTARITCSGDALPKQYGYWYQQKPGQAPVLVIYKDSERPSGIPERFSGSSSGTTVTLTISGVQAEDEADYYCQSADSGGTYVMFGGGTKLTVL
Consider B2, for which the “Neutralization IC50 (RSV subtype A)” value was above 25 µg/mL.

B3: ADI-41271 (antibody, V domains shown)
VH: QVQLQESGPGLVKPSQTLSLTCAISGDSVSSNNAAWNWIRQSPSRGLEWLGRTYYRSKWYNDYAVSVKSRITINPDTSKNQLSLQLNSVTPEDTAVYYCARAGVRQWLVRGMDAFDIWGQGTMVTVSS
VL: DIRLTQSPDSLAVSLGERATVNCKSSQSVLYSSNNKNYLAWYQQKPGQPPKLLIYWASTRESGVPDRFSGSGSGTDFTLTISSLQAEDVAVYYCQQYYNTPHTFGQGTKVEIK
In the case of B3, the “Neutralization IC50 (RSV subtype A)” value is above 25 µg/mL.

B4: ADI-41255 (antibody, V domains shown)
VH: EVQLVESGGGLVQPGGSLRISCAASGLTFSSYAMSWVRQAPGQGLEWVSSVSGSGVSTYYADSVKGRFTISRDNSKNTLYLQMNSLRAEDTAVYYCAKEDYYHFYMDVWGNGTTVTVSS
VL: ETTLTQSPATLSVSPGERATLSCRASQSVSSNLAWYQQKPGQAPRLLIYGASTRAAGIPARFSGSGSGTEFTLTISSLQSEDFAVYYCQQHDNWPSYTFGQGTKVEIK
B4: the “Neutralization IC50 (RSV subtype A)” value was above 25 µg/mL.

B5: ADI-41274 (antibody, V domains shown)
VH: EVQLVESGGGLVKPGGSLRLSCAASGFSFSSYAMNWVRQAPGKGLQWVSSISAGSSYIDYADSVKGRFTISRDNAENSLFLQMNSLRVEDTAVYYCARVGSYTHGYEFDYWGQGTLVTVSS
VL: QPVLTQPPSVSGAPGQRVTISCTGSNSNIGAGYDVHWYQQLPGTAPKLLIYASTIRPSGVPDRFSGSKSGTSASLAITGLQAEDEADYYCQSYDRNLSVVFGGGTKVTVL
In the case of B5, the “Neutralization IC50 (RSV subtype A)” value is 0.109 µg/mL.

B6: ADI-41263 (antibody, V domains shown)
VH: QVQLVQSGAEVKKPGASVKVYCKASGYTFTSHYIHWVRQAPGQGLEWMGRMNPSGGSPMYAQKFQERVTMTRDTSTSTAYMELRSLRSEDTAVYYCAMAKFYSFDYWGQGTLVTVSS
VL: QSVLTQPHSVSESPGKTVTISCTRSSGSIASYFVHWYQQRPGSAPTIVIYEDNQRPSGVPDRFSGSIDSSSNSASLTISGLKTEDEADYYCQSYDSSNWVFGGGTKLTVL
As for B6, the “Neutralization IC50 (RSV subtype A)” value was above 25 µg/mL.

B7: ADI-41273 (antibody, V domains shown)
VH: EVQLLESGGDLVRPGGSLRLSCTASGFSFSSSEMNWVRQAPGKGLEWVASINSGGDDIYYADSVKGRFTISRDNAKNSLSLQMDSLRAEDTALYYCARSRSGYSSGWSRFFGNWGQGTLVTVSS
VL: QSALTQPRSVSGSPGQSVTISCTGTISDIGAYNYVSWYQQHPGKAPKVMIYDVSKRPSGVPDRFSGSKSGFTASLTISGLQAEDEADYYCCSYAGRWVFGGGTKLTVL
B7: the “Neutralization IC50 (RSV subtype A)” value was above 25 µg/mL.

B8: ADI-41259 (antibody, V domains shown)
VH: QVQLVESGGRLVKPGGSLRLSCAASGFTFSDFYMSWIRQAPGKGLEWVSYISSSGDDPNYADSVKGRFTISRDNSKNSLYLQMNSLRAEDTAVYYCARDEVGWNNLDYYFGMDVWGQGTTVTVSS
VL: DIVMTQSPLSLPVTLGQPASISCRSSQSLVHSDGNTYLSWFHQRPGQSPRRLIYKVSNRDSGVPNRFSGGGSGTDFTLKISRVEAEDVGFFYCMQGTHWQKTFGQGTKVEIK
Take B8: the “Neutralization IC50 (RSV subtype A)” value is 0.02 µg/mL.

B9: ADI-41267 (antibody, V domains shown)
VH: QVQLVQSGPGLVKPSGTLSLTCAVSGGSISTTHWWSWVRQPPGKGLEWIGEIYHSGSTNYNPSLKSRVTISVDKSRSQFSLKLTSVTAADTAVYYCARGDPLCSGGICYSGYFDYWGQGTLVTVSS
VL: SYVLTQPPSVSVSPGQTATITCSGDKLGDQYACWYQQKSGQSPVLVIYRDNKRPSGIPERFSGSNSGNTATLTISETQAMDEADYYCQAWGSSSVVFGGGTKVTVL
Turning to B9, the “Neutralization IC50 (RSV subtype A)” value was above 25 µg/mL.

B10: ADI-41261 (antibody, V domains shown)
VH: QVQLVQSGAEVKKPGSSVKVSCKASGGTFSSYGISWVRQAPGQGLEWMGGIIPMFGAANYAQKFQGRVTITAETSTSTAFMELSSLRSDDTAVYYCARIRWVPNWGGTATSFYNGMDVWGQGTTVTVSS
VL: EIVMTQSPGTLSLSPGERATLSCRASQSVSSSYLAWYQQKPGQAPRLLIYGASSRATGIPDRFSGSGSGTDFTLTISRLEPEDFAVYYCQHYGSSLFTFGPGTKVDIK
In the case of B10, the “Neutralization IC50 (RSV subtype A)” value was above 25 µg/mL.

B11: ADI-41268 (antibody, V domains shown)
VH: EVQLVESGGGLVKPGGSLRLSCVASGFGFTSYSMNWVRQAPGKGLEWVSSISASSTYIHYADSVKGRFTISRDNARNSLYLQMISLRADDTAVYYCSRDGPTYGSGVHVWGQGTMVTVSS
VL: QSALIQPVSVSGSPGQSITISCTGTRSDVGGYNYVSWYQQHPGKAPKLMIYEVRNRPSGVSDRFSGSKSGNTASLTISGLQAEDEGDYYCSSYTSSDTLFYVFGSGTKLTVL
As for B11, the “Neutralization IC50 (RSV subtype A)” value was determined as 0.177 µg/mL.

B12: ADI-41253 (antibody, V domains shown)
VH: EVQLVQSGPGLVKPSETLSLTCTVSGDSISSSDYSYYWGWIRQPPGKGLEWIASLSYSGKTYSQSSLKSRVIISVDTSKKQFSLKLSSVTAADTAVYYCAVTRCYVCTSEGDSFDMWGQGTMVTVSS
VL: DIVLTQTPGTLSLSPGERATLSCRASQSISGNYLAWYQHKPGQAPRLLIYGASTRATGIPDRFSGSGSGTDFPLTISRLEPEDFAVYYCQQYATSPYTFGQGTKVDIK
As to B12, the “Neutralization IC50 (RSV subtype A)” value was found to be 0.03 µg/mL.

B13: ADI-41254 (antibody, V domains shown)
VH: EVQLVESGGGLVQSGGSLRLSCAASGFTFSSYEMNWVRQAPGKGLEWVSYTTNNGRTIYYADSVKGRFTISRDNAKNSLFLQMNGLRAEDTAVYYCARGIQFSRVDYAMDVWGQGTTVTVSS
VL: SYELTQPPSVSGTPGQRITISCSGSSSNIASNTVNWYQHLPGTAPKLLIYSDNQRPSGVPDRFSGSKSGTSASLAISGLQSEDEADYYCAIWDDSLNASYVFGTGTKLTVL
Take B13: the “Neutralization IC50 (RSV subtype A)” value was above 25 µg/mL.

B14: ADI-41275 (antibody, V domains shown)
VH: EVQLVESGGGLVKPGGSLRLSCAASGFMFSTYSMNWVRQAPGKGLEWVSFITGSSSDKYYAHSVKGRFTISRDNAKRTLYLQLNSLRAEDTAVYYCARFRGLYCDGDCSSRGNTYYNYYGMDVWGQGTTVTVSS
VL: EIVMTQSPLSLSVIPGEPASISCRSSKSLLHSNGYTYLDWYLQKPGQSPQLLIHLGSNRASGVPDRFSGSGSGTDFTLKISRVEAEDVGVFYCMQALQAPPTFGPGTKVEIK
Take B14: the “Neutralization IC50 (RSV subtype A)” value was above 25 µg/mL.

B15: ADI-41265 (antibody, V domains shown)
VH: EVQLVQSGAEVKKPGESLTISCKDSGYSFTSYWIGWVRQVPGKGLEWMGIVYPGDSRYSPSFQGHVTMSADKSINTAYLQWSTLKASDTAMYYCAKVVTYGSAIRWFESWGQGTLVTVSS
VL: QSVLTQPPSVSAAPGQKVSISCSGSSSNIGNNFVSWYQQVPGTAPKLLIIDNNKRPSGIPDRFSGSKSGTSATLGITGLQTGDEADYYCGTWDSRLSAEVFGGGTKLTVL
B15: the “Neutralization IC50 (RSV subtype A)” value was above 25 µg/mL.

B16: ADI-41256 (antibody, V domains shown)
VH: QVQLVQSGAEVKSPGSSATVSCKASGGTFGSYGISWVRQAPGQGLEWIGAIMPMFGTTNYAQKFQGRVTMTADESTSTVYMDVSSLRPDDTAVYYCVRDVFYDILTGYYDADYYHHYMDVWGKGTTVTVSS
VL: DIVMTQSPLSLPVTLGQPASISCRSGQSLVHSDGNTYLNWFQQRPGQSPRRLIYKVSNRGSGVPDRFSGSGSGTDFTLKISRVEAEDVGVYFCMQGTHWPRTFGQGTKVDIK
On to B16, for which the “Neutralization IC50 (RSV subtype A)” value worked out at 0.02 µg/mL.

B17: ADI-41276 (antibody, V domains shown)
VH: EVQLVESGGGLVQPGRSLRLSCRASGFTFRNYAMSWVRQAPGKGLEWVGFIRGKGYGGTTEYAASVKGRFTISSDDSRSIAYLQMNSLKTEDTAVYYCTRVREDGVIAVAEYYFDYWGQGTLVTVSS
VL: not shown
With B17, the “Neutralization IC50 (RSV subtype A)” value was above 25 µg/mL.

B18: ADI-41270 (antibody, V domains shown)
VH: EVQLVESGGGVVQPGQSLRLSCAASGFTFSSFAMHWVRQAPGKGLEWVAVISYDGSNKYYADSVKGRFTISRDNSKNTLSLQVNSLRAEDTAVYYCARVSAEGSMGRFSDFNYWGLGTLVTVSS
VL: QSALTQPASVSGSPGQSITISCTGTSSDVGSYNLVSWYQQHPGKAPKLMIYEVRKRPSGVSNRFSGSKSGNTASLTISGLQAEDEADYYCCSYAGSDTYVFGTGTKLTVL
For B18, the “Neutralization IC50 (RSV subtype A)” value is above 25 µg/mL.

B19: ADI-41257 (antibody, V domains shown)
VH: QVQLVESGAEVKKPGSSVKVSCKASEGTFSSYGISWVRQAPGQGPEWMGEINPMFGTAKYAQKFQGRVTITVDESTSTADMELSSLTSEDTAVYYCAREFLGQCSETNCPTPSRHLDYWGQGTLVTVSS
VL: EIVMTQSPSSLSASVGDRVTITCRASRTISSYLNWYQQKPGKAPKLLIYATSNLQSGVPSRFSGSGSGADFTLTISSLQPEDFATYYCQQTYSTPGFGPGTKVDIK
Regarding B19, the “Neutralization IC50 (RSV subtype A)” value was above 25 µg/mL.

B20: ADI-41264 (antibody, V domains shown)
VH: EVQLVESGGGLVKPGGSLRLSCAASGFTFSNTWMSWVRQAPGKGLEWVGHIKSKTDGGTTDYAAPVKGRFTISRDDSKSILNLHLNSLKTEDSAVYYCAALPPISGWYYTPGFWGQGTLVTVSS
VL: SYELTQPPSMSVSPGQTARITCFGDAVPKKYVYWYQQKSGQAPVMVIYDDRRRPSGIPERFSGSSSGARATLTISGAQVEDEADYYCYSTDGSGNPSFGGGTKLTVL
With B20, the “Neutralization IC50 (RSV subtype A)” value was above 25 µg/mL.

B21: ADI-41252 (antibody, V domains shown)
VH: EVQLVQSGAEVKKPGESLKISCMGSGYNFPNYWIGWVRQMSGKGLEWMGIIYPDDSDTTYSPSFQGQVIFSADKSISTAYLQWSSLKASDTAMYFCVRLDKTTQIDFWGQGTLVTVSS
VL: EIVLTQSPSSLSASVGDRVTITCQASQDISNYLNWYQQKPGKAPKLLIYDVSNLETGVPSRFSGSGSGTDFTFTISSLQPEDIATYYCQQHDNLPLTFGQGTRLEIK
On to B21, for which the “Neutralization IC50 (RSV subtype A)” value is above 25 µg/mL.
